From patent publication US20220040266A1

Biological target: growth hormone receptor (GHR) on pancreatic cancer cells (human) (UniProt P10912)
Test: cell-based or functional assay

Sequence of UniProt P10912 (P10912 19-638): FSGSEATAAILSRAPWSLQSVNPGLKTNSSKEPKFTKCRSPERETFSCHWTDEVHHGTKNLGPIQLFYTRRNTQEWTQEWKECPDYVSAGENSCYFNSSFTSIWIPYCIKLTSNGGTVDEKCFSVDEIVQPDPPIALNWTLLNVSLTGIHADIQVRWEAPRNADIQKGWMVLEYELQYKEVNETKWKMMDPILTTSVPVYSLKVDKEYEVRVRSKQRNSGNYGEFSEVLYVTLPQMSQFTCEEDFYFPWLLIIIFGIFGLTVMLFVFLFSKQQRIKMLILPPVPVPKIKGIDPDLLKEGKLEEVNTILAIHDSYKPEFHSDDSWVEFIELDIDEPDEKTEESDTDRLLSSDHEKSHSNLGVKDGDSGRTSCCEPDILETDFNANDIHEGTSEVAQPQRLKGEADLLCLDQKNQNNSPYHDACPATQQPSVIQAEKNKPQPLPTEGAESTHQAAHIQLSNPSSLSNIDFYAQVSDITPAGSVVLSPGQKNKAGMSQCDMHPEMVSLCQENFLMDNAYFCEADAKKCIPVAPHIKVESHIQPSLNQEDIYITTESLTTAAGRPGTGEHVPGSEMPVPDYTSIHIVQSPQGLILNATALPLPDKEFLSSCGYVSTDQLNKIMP

drug efflux rate (DiOC2 dye), pancreatic cancer cells, 120 minutes [fold] | percentage of drug retention after 120 minutes, pancreatic cancer cells [%] | Substance
2 | 83 | pegvisomant (SOMAVERT) (ligand)
2 | 83 | Compound G (hGHR antagonist hGH-G120K having T142 and H151 changed to cysteine and having both added cysteines conjugated with dPEG-A) (from UniProt P01241 27-217) (ligand)
